In paper PMC8488672 (Proceedings of the National Academy of Sciences of the …, 2021):

What was measured:
Assay in all cases: fluorescence microscopy of rEV binding to transfected cells
[1] = molecular target: gD-GPI CD248 transiently expressed on cells (UniProt Q9HCU0)
[2] = molecular target: T1, gD-GPI CD248 transiently expressed on cells (UniProt Q9HCU0 18-687, glycosylphosphatidylinositol (GPI) lipid anchor)
T1 sequence: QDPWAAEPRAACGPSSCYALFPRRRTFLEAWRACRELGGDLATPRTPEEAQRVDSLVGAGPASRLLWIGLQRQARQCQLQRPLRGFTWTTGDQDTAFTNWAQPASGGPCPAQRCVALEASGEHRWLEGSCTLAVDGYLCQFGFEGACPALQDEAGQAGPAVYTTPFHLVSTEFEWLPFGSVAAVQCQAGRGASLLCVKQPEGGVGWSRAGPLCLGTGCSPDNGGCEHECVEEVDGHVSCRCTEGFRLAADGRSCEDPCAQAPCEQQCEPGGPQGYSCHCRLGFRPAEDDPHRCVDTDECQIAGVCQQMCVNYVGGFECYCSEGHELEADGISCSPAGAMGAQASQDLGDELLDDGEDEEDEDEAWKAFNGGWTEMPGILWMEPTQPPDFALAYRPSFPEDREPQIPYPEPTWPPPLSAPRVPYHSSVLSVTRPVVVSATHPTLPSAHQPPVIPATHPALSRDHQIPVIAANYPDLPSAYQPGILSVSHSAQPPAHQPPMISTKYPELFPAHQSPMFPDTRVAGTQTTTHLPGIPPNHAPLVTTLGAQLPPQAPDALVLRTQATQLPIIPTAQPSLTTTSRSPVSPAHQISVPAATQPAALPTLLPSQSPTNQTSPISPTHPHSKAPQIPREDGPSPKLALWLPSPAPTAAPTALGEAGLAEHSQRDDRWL

[3] = molecular target: T2, full-length CD248 transiently expressed on cells (UniProt Q9HCU0 18-757)
T2 sequence: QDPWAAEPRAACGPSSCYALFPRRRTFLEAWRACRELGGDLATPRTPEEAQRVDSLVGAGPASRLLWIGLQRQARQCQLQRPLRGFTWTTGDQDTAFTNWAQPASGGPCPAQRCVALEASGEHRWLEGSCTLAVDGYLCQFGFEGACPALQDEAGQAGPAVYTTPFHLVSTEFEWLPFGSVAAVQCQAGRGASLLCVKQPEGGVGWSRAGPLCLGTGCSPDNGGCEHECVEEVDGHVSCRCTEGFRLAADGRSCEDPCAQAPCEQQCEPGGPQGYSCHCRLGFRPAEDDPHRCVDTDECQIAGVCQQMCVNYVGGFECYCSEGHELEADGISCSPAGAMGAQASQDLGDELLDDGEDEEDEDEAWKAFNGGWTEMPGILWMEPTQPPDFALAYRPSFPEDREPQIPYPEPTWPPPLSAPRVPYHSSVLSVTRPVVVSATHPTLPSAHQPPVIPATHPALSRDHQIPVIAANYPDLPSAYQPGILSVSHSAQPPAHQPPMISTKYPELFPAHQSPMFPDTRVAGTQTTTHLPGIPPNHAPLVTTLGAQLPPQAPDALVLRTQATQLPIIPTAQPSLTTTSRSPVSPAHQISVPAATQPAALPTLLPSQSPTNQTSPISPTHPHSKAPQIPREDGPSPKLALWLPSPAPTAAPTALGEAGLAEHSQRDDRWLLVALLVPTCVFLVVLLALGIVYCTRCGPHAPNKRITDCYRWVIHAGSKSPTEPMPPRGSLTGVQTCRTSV

Q: How did the fold binding over cells transfected with an empty vector control [1] turn out when “gD-GPI–tagged LRRC15 ectodomain displayed on rEVs (from UniProt Q8TF66 22-538) (domain or fragment)” was run?
A: Its fold binding over cells transfected with an empty vector control is greater than 10 fold.

B1: full-length LRRC15 displayed on rEVs (receptor)
chain: YHGCPSECTCSRASQVECTGARIVAVPTPLPWNAMSLQILNTHITELNESPFLNISALIALRIEKNELSRITPGAFRNLGSLRYLSLANNKLQVLPIGLFQGLDSLESLLLSSNQLLQIQPAHFSQCSNLKELQLHGNHLEYIPDGAFDHLVGLTKLNLGKNSLTHISPRVFQHLGNLQVLRLYENRLTDIPMGTFDGLVNLQELALQQNQIGLLSPGLFHNNHNLQRLYLSNNHISQLPPSVFMQLPQLNRLTLFGNSLKELSPGIFGPMPNLRELWLYDNHISSLPDNVFSNLRQLQVLILSRNQISFISPGAFNGLTELRELSLHTNALQDLDGNVFRMLANLQNISLQNNRLRQLPGNIFANVNGLMAIQLQNNQLENLPLGIFDHLGKLCELRLYDNPWRCDSDILPLRNWLLLNQPRLGTDTVPVCFSPANVRGQSLIIINVNVAVPSVHVPEVPSYPETPWYPDTPSYPDTTSVSSTTELTSPVEDYTDLTTIQVTDDRSVWGMTQAQSGLAIAAIVIGIVALACSLAACVGCCCCKKRSQAVLMQMKAPNEC
Q: What does the source list for B1?
A: fold binding over cells transfected with an empty vector control [2]: > 10 fold; fold binding over cells transfected with an empty vector control [3]: > 10 fold

B2: gD-GPI–tagged LRRC15 ectodomain displayed on rEVs (domain or fragment)
chain: YHGCPSECTCSRASQVECTGARIVAVPTPLPWNAMSLQILNTHITELNESPFLNISALIALRIEKNELSRITPGAFRNLGSLRYLSLANNKLQVLPIGLFQGLDSLESLLLSSNQLLQIQPAHFSQCSNLKELQLHGNHLEYIPDGAFDHLVGLTKLNLGKNSLTHISPRVFQHLGNLQVLRLYENRLTDIPMGTFDGLVNLQELALQQNQIGLLSPGLFHNNHNLQRLYLSNNHISQLPPSVFMQLPQLNRLTLFGNSLKELSPGIFGPMPNLRELWLYDNHISSLPDNVFSNLRQLQVLILSRNQISFISPGAFNGLTELRELSLHTNALQDLDGNVFRMLANLQNISLQNNRLRQLPGNIFANVNGLMAIQLQNNQLENLPLGIFDHLGKLCELRLYDNPWRCDSDILPLRNWLLLNQPRLGTDTVPVCFSPANVRGQSLIIINVNVAVPSVHVPEVPSYPETPWYPDTPSYPDTTSVSSTTELTSPVEDYTDLTTIQVTDDRSVWGMTQAQSG
modifications: glycosylphosphatidylinositol (GPI) lipid anchor
Q: Which “fold binding over cells transfected with an empty vector control” value [3] does the source give for B2 here?
A: Its value is greater than 10 fold.
